In patent US20030199077:

T1: trypsin inhibitor type IV-0 (Ovo-inhibitor), Sigma T-1886, P10184
T1 chain: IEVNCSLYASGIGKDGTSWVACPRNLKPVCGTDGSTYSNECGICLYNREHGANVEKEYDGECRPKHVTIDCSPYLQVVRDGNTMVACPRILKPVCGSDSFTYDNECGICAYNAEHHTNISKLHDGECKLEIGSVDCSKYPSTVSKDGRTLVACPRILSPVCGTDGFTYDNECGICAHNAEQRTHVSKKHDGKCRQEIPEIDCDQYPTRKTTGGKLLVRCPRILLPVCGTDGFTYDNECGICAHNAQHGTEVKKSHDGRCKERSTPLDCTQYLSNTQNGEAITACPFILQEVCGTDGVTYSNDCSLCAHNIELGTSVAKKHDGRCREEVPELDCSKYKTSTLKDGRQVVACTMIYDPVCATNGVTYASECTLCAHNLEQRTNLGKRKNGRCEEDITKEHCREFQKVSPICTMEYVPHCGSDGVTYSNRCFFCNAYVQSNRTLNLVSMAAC

T2: trypsin inhibitor type IV-0 (Ovo-inhibitor), Sigma T-1886 (UniProt P10184)
T2 sequence: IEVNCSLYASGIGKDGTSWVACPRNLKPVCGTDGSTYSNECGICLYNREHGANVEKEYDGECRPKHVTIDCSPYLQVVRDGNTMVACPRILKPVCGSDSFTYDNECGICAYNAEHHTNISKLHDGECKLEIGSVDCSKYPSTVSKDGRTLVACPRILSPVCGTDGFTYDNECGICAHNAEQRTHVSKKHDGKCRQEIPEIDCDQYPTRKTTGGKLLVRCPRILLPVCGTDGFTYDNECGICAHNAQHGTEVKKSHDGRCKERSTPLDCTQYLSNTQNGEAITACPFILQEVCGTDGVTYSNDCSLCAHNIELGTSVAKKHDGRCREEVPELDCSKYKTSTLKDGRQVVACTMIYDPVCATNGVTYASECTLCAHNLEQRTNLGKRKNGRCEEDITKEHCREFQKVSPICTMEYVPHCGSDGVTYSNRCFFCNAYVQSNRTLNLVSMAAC

B1: Savinase® (subtilisin 309 from B. lentus, BLSAVI) (protein)
chain: AQSVPWGISRVQAPAAHNRGLTGSGVKVAVLDTGISTHPDLNIRGGASFVPGEPSTQDGNGHGTHVAGTIAALNNSIGVLGVAPSAELYAVKVLGASGSGSVSSIAQGLEWAGNNGMHVANLSLGSPSPSATLEQAVNSATSRGVLVVAASGNSGAGSISYPARYANAMAVGATDQNNNRASFSQYGAGLDIVAPGVNVQSTYPGSTYASLNGTSMATPHVAGAAALVKQKNPSWSNVQIRNHLKNTATSLGSTNLYGSGLVNAEAATR

Molecular target: T1, trypsin inhibitor type IV-0 …
In the case of B1, the “Residual Activity (%)” value is reported as <5%.

These molecules were tested against T2, trypsin inhibitor type IV-0 (Ovo-inhibitor), Sigma T-1886.
Work on Savinase variant S99SD+S99A+T143K yielded a Residual Activity (%) of 23%.
Savinase variant S99SD+S99A+L217LP showed a Residual Activity (%) of 97%.
With Savinase variant S99SE the Residual Activity (%) was 27%.
Molecule Savinase variant S99SD+M222S has a Residual Activity (%) of 25%.
For Savinase variant S99SD+S99A+P129PR, the Residual Activity (%) was 21%.
Molecule Savinase variant S99SD has a Residual Activity (%) of 25%.
With Savinase variant S99SD+S99A+D42DN the Residual Activity (%) was 69.2%.
For Savinase variant S99SD+S99A+P131T, the Residual Activity (%) was 35.6%.
Work on “Savinase variant A98AT+Y167A+R170S+A194P” yielded a Residual Activity (%) of 88%.
In the case of “Savinase variant A98AI+A98G+S99H+G100S+S101A”, the Residual Activity (%) is reported as 22%.
Savinase variant S99SR+S99T showed a Residual Activity (%) of 67.7%.
Savinase variant S99SD+S99A+S216SDP was tested, and the Residual Activity (%) was 35%.
Work on Savinase variant S99SD+S99A+S216SP yielded a Residual Activity (%) of 29.2%.
Savinase variant S99SN was tested, and the Residual Activity (%) was 19%.
Work on “Savinase variant S99SD+S99A+L217F+A228V+A230V” yielded a Residual Activity (%) of 12%.
Work on Savinase variant S99SD+S99A+P129PD yielded a Residual Activity (%) of 50%.
Savinase variant S99SD+S99A+A133E showed a Residual Activity (%) of 39%.
Savinase variant S99SD+S99A showed a Residual Activity (%) of 27.3%.
For Savinase variant S99SQ+S99T, the Residual Activity (%) was 25%.
Work on Savinase variant S99SD+N76D+A194P+A230V yielded a Residual Activity (%) of 18.4%.
